Results taken from patent US11306156.
One block for each substance: values may come before it.

Tests used:
[1] = target: D3H44 Fab heavy chain L124E_L143D_K145T, C-terminal ABD2-His6 tag; test: LCCA set 9214 (co-expression; SPR read-out of light-chain tags; L1:L2 DNA 1:3, normalized to 1:1); competing light chain m15
[2] = target: D3H44 Fab heavy chain L124E_L143E_K145T, C-terminal ABD2-His6 tag; test: LCCA set 9298 (co-expression; SPR read-out of light-chain tags; L1:L2 DNA 1:3, normalized to 1:1); competing light chain m17
[3] = target: D3H44 Fab heavy chain L124E_L143E_K145M, C-terminal ABD2-His6 tag; test: LCCA set 9263 (co-expression; SPR read-out of light-chain tags; L1:L2 DNA 1:3, normalized to 1:1); competing light chain m14
[4] = target: D3H44 Fab heavy chain L124R_S186K, C-terminal ABD2-His6 tag; test: LCCA set 9473 (co-expression; SPR read-out of light-chain tags; L1:L2 DNA 1:3, normalized to 1:1); competing light chain m16
[5] = target: D3H44 Fab heavy chain L124E_L143E_K145M, C-terminal ABD2-His6 tag; test: LCCA set 9259 (co-expression; SPR read-out of light-chain tags; L1:L2 DNA 1:3, normalized to 1:1); competing light chain m17
[6] = target: D3H44 Fab heavy chain L124E_L143E_K145T, C-terminal ABD2-His6 tag; test: LCCA co-expression, SPR tag read-out; DNA 1:3 norm. to 1:1; competing light chain m11
[7] = target: D3H44 Fab heavy chain L124R_Q179K, C-terminal ABD2-His6 tag; test: as above
[8] = target: D3H44 Fab heavy chain L124E_L143D_K145T, C-terminal ABD2-His6 tag; test: LCCA set 9217 (co-expression; SPR read-out of light-chain tags; L1:L2 DNA 1:3, normalized to 1:1); competing light chain m16
[9] = target: D3H44 Fab heavy chain L124E_L143D_K145M, C-terminal ABD2-His6 tag; test: LCCA set 9176 (co-expression; SPR read-out of light-chain tags; L1:L2 DNA 1:3, normalized to 1:1); competing light chain m15
[10] = target: D3H44 Fab heavy chain L124R_Q179K, C-terminal ABD2-His6 tag; test: LCCA set 9384 (co-expression; SPR read-out of light-chain tags; L1:L2 DNA 1:3, normalized to 1:1); competing light chain m17
[11] = target: D3H44 Fab heavy chain L124R_S186K, C-terminal ABD2-His6 tag; test: LCCA set 9451 (co-expression; SPR read-out of light-chain tags; L1:L2 DNA 1:3, normalized to 1:1); competing light chain m15
[12] = target: D3H44 Fab heavy chain L124E_L143D_K145T, C-terminal ABD2-His6 tag; test: LCCA (co-expression, SPR read-out of light chain tags), L1:L2 DNA 1:3 normalised to 1:1; competitor m13
[13] = target: D3H44 Fab heavy chain L124E_L143E_K145M, C-terminal ABD2-His6 tag; test: as above
[14] = target: D3H44 Fab heavy chain L124E_L143D_K145M, C-terminal ABD2-His6 tag; test: as above
[15] = target: D3H44 Fab heavy chain L124R_Q179K, C-terminal ABD2-His6 tag; test: as above
[16] = target: D3H44 Fab heavy chain L124E_L143D_K145T, C-terminal ABD2-His6 tag; test: LCCA (co-expression, SPR read-out of light chain tags), L1:L2 DNA 1:3 normalised to 1:1; competitor m16
[17] = target: D3H44 Fab heavy chain L124R_S186R, C-terminal ABD2-His6 tag; test: as above
[18] = target: D3H44 Fab heavy chain L124E_L143E_K145T, C-terminal ABD2-His6 tag; test: as above
[19] = target: D3H44 Fab heavy chain L124R_Q179K, C-terminal ABD2-His6 tag; test: as above
[20] = target: D3H44 Fab heavy chain L124E_L143E_K145M, C-terminal ABD2-His6 tag; test: LCCA set 9257 (co-expression; SPR read-out of light-chain tags; L1:L2 DNA 1:3, normalized to 1:1); competing light chain m15
[21] = target: D3H44 Fab heavy chain L124R_S186R, C-terminal ABD2-His6 tag; test: LCCA (co-expression, SPR read-out of light chain tags), L1:L2 DNA 1:3 normalised to 1:1; competitor m17
[22] = target: D3H44 Fab heavy chain L124R_S186K, C-terminal ABD2-His6 tag; test: as above
[23] = target: D3H44 Fab heavy chain L124E_L143E_K145T, C-terminal ABD2-His6 tag; test: as above
[24] = target: D3H44 Fab heavy chain L124R_S186R, C-terminal ABD2-His6 tag; test: LCCA set 9505 (co-expression; SPR read-out of light-chain tags; L1:L2 DNA 1:3, normalized to 1:1); competing light chain m15
[25] = target: D3H44 Fab heavy chain L124E_L143E_K145M, C-terminal ABD2-His6 tag; test: LCCA co-expression, SPR tag read-out; DNA 1:3 norm. to 1:1; competing light chain m13
[26] = target: D3H44 Fab heavy chain L124E_L143E_K145T, C-terminal ABD2-His6 tag; test: as above
[27] = target: D3H44 Fab heavy chain L124R_Q179K, C-terminal ABD2-His6 tag; test: as above
[28] = target: D3H44 Fab heavy chain L124R_S186K, C-terminal ABD2-His6 tag; test: LCCA set 9488 (co-expression; SPR read-out of light-chain tags; L1:L2 DNA 1:3, normalized to 1:1); competing light chain m18
[29] = target: D3H44 Fab heavy chain L124R_Q179K, C-terminal ABD2-His6 tag; test: LCCA set 9388 (co-expression; SPR read-out of light-chain tags; L1:L2 DNA 1:3, normalized to 1:1); competing light chain m17
[30] = target: D3H44 Fab heavy chain L124E_L143E_K145T, C-terminal ABD2-His6 tag; test: LCCA (co-expression, SPR read-out of light chain tags), L1:L2 DNA 1:3 normalised to 1:1; competitor m13
[31] = target: D3H44 Fab heavy chain L124E_L143E_K145M, C-terminal ABD2-His6 tag; test: LCCA (co-expression, SPR read-out of light chain tags), L1:L2 DNA 1:3 normalised to 1:1; competitor m16
[32] = target: D3H44 Fab heavy chain L124R_S186K, C-terminal ABD2-His6 tag; test: as above
[33] = target: D3H44 Fab heavy chain L124E_L143E_K145M, C-terminal ABD2-His6 tag; test: LCCA set 9266 (co-expression; SPR read-out of light-chain tags; L1:L2 DNA 1:3, normalized to 1:1); competing light chain m17
[34] = target: D3H44 Fab heavy chain L124E_L143E_K145T, C-terminal ABD2-His6 tag; test: LCCA set 9323 (co-expression; SPR read-out of light-chain tags; L1:L2 DNA 1:3, normalized to 1:1); competing light chain m14
[35] = target: D3H44 Fab heavy chain L124E_L143E_K145T, C-terminal ABD2-His6 tag; test: LCCA set 9320 (co-expression; SPR read-out of light-chain tags; L1:L2 DNA 1:3, normalized to 1:1); competing light chain m18
[36] = target: D3H44 Fab heavy chain L124E_L143D_K145T, C-terminal ABD2-His6 tag; test: LCCA co-expression, SPR tag read-out; DNA 1:3 norm. to 1:1; competing light chain m13
[37] = target: D3H44 Fab heavy chain L124R_S186K, C-terminal ABD2-His6 tag; test: as above
[38] = target: D3H44 Fab heavy chain L124R_S186R, C-terminal ABD2-His6 tag; test: LCCA set 9550 (co-expression; SPR read-out of light-chain tags; L1:L2 DNA 1:3, normalized to 1:1); competing light chain m14
[39] = target: D3H44 Fab heavy chain L124E_L143E_K145T, C-terminal ABD2-His6 tag; test: LCCA set 9316 (co-expression; SPR read-out of light-chain tags; L1:L2 DNA 1:3, normalized to 1:1); competing light chain m17

H1L1:H1L2 normalized median ratio (H1L1 part) [1]: 85% | H1L1:H1L2 normalized median scalar value ln(r1/f1) [1]: 1.71 | H1L1:H1L2 normalized median ratio (H1L1 part) [2]: 88% | H1L1:H1L2 normalized median ratio (H1L1 part) [3]: 88% | H1L1:H1L2 normalized median scalar value ln(r1/f1) [3]: 1.95 | H2L2:H2L1 normalized median ratio (H2L1 part) [4]: 7% | H1L1:H1L2 normalized median ratio (H1L1 part) [5]: 84% | H1L1:H1L2 normalized median scalar value ln(r1/f1) [5]: 1.67 | H1L1:H1L2 normalized median ratio (% (ratio normalized to 100)) [6]: 89 | H1L1:H1L2 normalized median scalar value ln(r1/f1) [6]: 2.12 | H2L2:H2L1 normalized median ratio (% (ratio normalized to 100)) [7]: 4 | H1L1:H1L2 normalized median ratio (H1L1 part) [8]: 82% | H1L1:H1L2 normalized median scalar value ln(r1/f1) [8]: 1.52 | H1L1:H1L2 normalized median ratio (H1L1 part) [9]: 83% | H1L1:H1L2 normalized median scalar value ln(r1/f1) [9]: 1.62 | H2L2:H2L1 normalized median ratio (H2L1 part) [10]: 8% | H2L2:H2L1 normalized median ratio (H2L1 part) [11]: 7% | H1L1:H1L2 normalized median ratio [12]: 84% | H1L1:H1L2 normalized median scalar value ln(r1/f1) [12]: 1.66 | H1L1:H1L2 normalized median ratio [13]: 85% | H1L1:H1L2 normalized median scalar value ln(r1/f1) [13]: 1.77 | H1L1:H1L2 normalized median ratio [14]: 85% | H1L1:H1L2 normalized median scalar value ln(r1/f1) [14]: 1.76 | H2L2:H2L1 normalized median ratio [15]: 4% | H1L1:H1L2 normalized median ratio [16]: 81% | H2L2:H2L1 normalized median ratio [17]: 8% | H1L1:H1L2 normalized median ratio [18]: 89% | H1L1:H1L2 normalized median scalar value ln(r1/f1) [18]: 2.08 | H2L2:H2L1 normalized median ratio [19]: 4% | H1L1:H1L2 normalized median ratio (H1L1 part) [20]: 84% | H1L1:H1L2 normalized median scalar value ln(r1/f1) [20]: 1.65 | H2L2:H2L1 normalized median ratio [21]: 6% | H2L2:H2L1 normalized median ratio [22]: 7% | H1L1:H1L2 normalized median ratio [23]: 87% | H1L1:H1L2 normalized median scalar value ln(r1/f1) [23]: 1.89 | H2L2:H2L1 normalized median ratio (H2L1 part) [24]: 6% | H1L1:H1L2 normalized median ratio (% (ratio normalized to 100)) [25]: 88 | H1L1:H1L2 normalized median scalar value ln(r1/f1) [25]: 1.95 | H1L1:H1L2 normalized median ratio (% (ratio normalized to 100)) [26]: 89 | H1L1:H1L2 normalized median scalar value ln(r1/f1) [26]: 2.08 | H2L2:H2L1 normalized median ratio (% (ratio normalized to 100)) [27]: 4
Substance: D3H44 light chain Q124K_V133G_S176R_T178K, N-terminal HA or FLAG tag

H2L2:H2L1 normalized median ratio (H2L1 part) [28]: 9% | H2L2:H2L1 normalized median ratio (H2L1 part) [29]: 8% | H1L1:H1L2 normalized median ratio [13]: 87% | H1L1:H1L2 normalized median scalar value ln(r1/f1) [13]: 1.9 | H1L1:H1L2 normalized median ratio [30]: 90% | H1L1:H1L2 normalized median scalar value ln(r1/f1) [30]: 2.15 | H2L2:H2L1 normalized median ratio [15]: 7% | H1L1:H1L2 normalized median ratio [16]: 87% | H1L1:H1L2 normalized median ratio [31]: 88% | H2L2:H2L1 normalized median ratio [32]: 7% | H1L1:H1L2 normalized median ratio (H1L1 part) [33]: 84% | H1L1:H1L2 normalized median scalar value ln(r1/f1) [33]: 1.67 | H1L1:H1L2 normalized median ratio (H1L1 part) [34]: 91% | H1L1:H1L2 normalized median scalar value ln(r1/f1) [34]: 2.34 | H1L1:H1L2 normalized median ratio (H1L1 part) [35]: 86% | H1L1:H1L2 normalized median scalar value ln(r1/f1) [35]: 1.82 | H1L1:H1L2 normalized median ratio (% (ratio normalized to 100)) [36]: 87 | H1L1:H1L2 normalized median ratio (% (ratio normalized to 100)) [25]: 88 | H2L2:H2L1 normalized median ratio (% (ratio normalized to 100)) [37]: 7 | H1L1:H1L2 normalized median ratio (% (ratio normalized to 100)) [26]: 91 | H1L1:H1L2 normalized median scalar value ln(r1/f1) [26]: 2.34 | H2L2:H2L1 normalized median ratio (% (ratio normalized to 100)) [27]: 5 | H2L2:H2L1 normalized median ratio (H2L1 part) [38]: 11% | H1L1:H1L2 normalized median ratio (H1L1 part) [39]: 88% | H1L1:H1L2 normalized median scalar value ln(r1/f1) [39]: 2
Substance: D3H44 light chain Q124K_V133G_S176R_T178R, N-terminal HA or FLAG tag
